Measured values as given in the nanobody polyreactivity screen of Harvey et al. (2022).

Experiment: yeast display, Sf9 membrane polyspecificity reagent, FACS + sequencing; frameworks hold sequencing errors
Method in brief: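 Using colony PCR, genes from sorted yeast display clones were amplified, then sequenced on MiSeq at 2 × 250 and filtered by CDR length. The clones had been stained with 10% biotinylated, detergent-solubilized Sf9 membrane reagent for 1 hour at 4 °C and sorted by FACS into low and high (top ~1%) gates on anti-HA and streptavidin fluorescence. Polyreactivity labels come from the gate of origin.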

Sequence	polyreactivity (PSR sort gate)
QDQLVESGGGLVQEGGSLRLSCAASGRTFISKVMGWYRQAPGKERELVAAISGSSGSTRYADSVKGRFTISRDYAKNTVYLQMNSLKPEDTAVYYCAPRAPWPKWGYYYWGLGTQVTVSS	high polyreactivity
QVQLVESGGGLVQAGGSLRISCAASGRIFATNAMGWYRQAPGKERELVAVITGGGDTNYADSVKGRFTISRDNAKNTVYLQMNSLKPEDTAVYYCAAEGSFYRYHVGSDYWGQGTQVTVSS	low polyreactivity
QVQLVESGGGLVQAGGSLRLSCAASGNIFYYNAMGWSRQGPGKEMELVAAISSGGSTNYADSVKGRFTISRDNAKNTVYLQMNSLKPEDTAVYYCAANYVTIGSGYYGYDYWGQGTQVTVSS	low polyreactivity
QVQLVESGGGLVQAGGSLRLSCAASGFIFSRYAMGWYRQAPGKEREFVAANSWSGGRTYYADSVKGRFTISRDNAKNTVYLQMNSLKPEDTAVYFCAARGYYPARHGTGGYWGQGTQVTVSS	high polyreactivity
QVQLVESGGGLVQAGGSLRLSCAASGRTFRSNAMGWYRQAPGKERELVAAITRSGGNTYYADSVKGRFTISRDTAKNTVYLQMNSLKPEDTAVYYCADRYSNPWARVSGYDYWGQGTQVTVSS	high polyreactivity
QVQLVESGGGLVQAGGSLRLSCAASGRTFRSNAMGWYRQAPGKERELVAAISNSGASTYYADSVKGRFTISRDNAKNTFYLQMNSLKPEDTAVYYCAADYYRPYRYDYWGQGTQVTVSS	high polyreactivity
QVQLVESGGGLVQAGGSLRLSCAASGSILGINVMGWYRQAPGKERELVAAISRRGGSTYYADSVKGRFTISRDNAKNTVYLQMNSLKPEDTAVYYCAATRTARTMGYCGQGTQVTVSS	high polyreactivity
QVQLVESGGGLVQAGGSLRLSCADSGRIFGPYAMGWYRQAPGKERELVAAISGGGRTDYADSVKGRFTISRDNAKNTVYLQMNSLKPEDTAVYYCNADYTYWNGWFATRDYWGQGTQVTVSS	low polyreactivity
QVQLVESGGGLVQAGGSLRLSCAASGMTFTYYAMGWYRQAPGKERELVAAISWSDGSTYYADSVKGRFTISRDNAKNTVYLQMNSLKPEDTAVYYCAARYGGAISQAKYYYWGQGTQVTVSS	high polyreactivity
QVQLVESGGGLVQAGGSLRLSCAASGIIFDYYAMGWYRQAPGKERELVAAITTSGGRTYYADSVKGRFTISRDNAKNTVNFQMNSLKPEDTAVYYCAASRPSPRPRYGYWGQGTQVTVSS	high polyreactivity
QVQLDESGGGLVQAGGSLRLSCAASGSTFNIYAMGWYRRAPWQERELVAAITRGGSTNYADSVKGRFTISRDNAKNTVYLQMNSLKPEDTAVYYCAARTAYFTSYGRYYYWGQGTQVTVSS	high polyreactivity
QVQLVESGGGLVQAGGSLRLSCAASGRIFVIYGMGWYRQAPGKERELVATISWSGSSTSYADSVKGRFTISRDNAKNTVYLQMNSLKPEDTAVYYCAAYTWYSRHRMNYWGQGTQVTVSS	high polyreactivity
QEQLLESGGGLLQAGGSLRLSCAASGSNFVSVTMGWYRQATGKELELVASIGRGSTTNHADSVKGRFTISRDNAKNIVYLLMNSLKPEDTAVYYCAALESYGKYHGYWGQGTQVTVSS	low polyreactivity
QVQLLESGGGLVQAGGSLRLTCAASGRTFQYNAMGWYRQAPGKERELVGAISSTGGSTYYADSVKGRFTISRDNAKNTVYLQMNSLKPEDTAVYYCARQGRYTRGDYWGQGTQVTVSS	high polyreactivity
QVQLVESGGGLVQAGGSLRLSCAASGRIFRRYAMGWYRQAPGKERELVAAISTRGGSTYYADSVKGRFTISRDNAKNTVYLPMNSLKPEDTAVYYCAAGRDPGYNNDDYWGQGTQVTVSS	high polyreactivity
QVQLVESGGGLVQAGGSLRLSSAASGSTIGYYAMRWYRQAPGKERELVAAISWSGGSTYYADSVKGRFTISRDNAKNTVYLQMNSLKPEDTAVYYCAADTYPDYYLVEYYYWGQGTQVTVSS	low polyreactivity
QVQLVESGGGLVHAGGSLRLSCAASGFIFWRYAMGWYRQAPGKERELVATITSSGGTTHYADSVKGRFTISRDNAKNTVYLQMNSLKPEDTAVFYCATRNGVGSLFYSRNYWGQGTQVSVSS	high polyreactivity
QVQLVESGGGLVQAGGSLRLSCAPSGSTFVRYAMGWYRQAPGKESELVAAISKSGVSTYYADSVKGRFTISRDNAKNTVNLQMNSLKPEDTAVYYCAAYARGVRRYRRYDYWGPGTQVTVSS	high polyreactivity
QVQLVESGGGLVQAGGSLRLSCAASGRIFAYYAMGWYRQAPGKERELVAAISFIGGSTYYADSVKGRFTISRDNAKNTVYLQMNSLKPEDTAVDYCTAGYVRRYSPSSSWRYDYWGQGTQVTVSS	high polyreactivity
QVQLVESGGGLVQAGGSLRLSCAASGSTFLRNAMGWYREAPGKERELVAAISTRGGSTYYADSVKGRFTISRDNAKNTVNLQMNSLKPEDTADYYCAAVATRRYDYWGQGTQVTVSS	high polyreactivity
QVQLVESGGGLVQAGGSLRLSCAASGFTFVGNTMGWYRQAPGKERELVAAIRGRDGRTYYADSVKGRFTISRDNAKNTVYLQMNSLKPEDTAVFYCNAVGFVWYFDVYSYFTEIKYDYWGQGTQVTVSS	low polyreactivity
QVQLVESGGGLVQAGGSLRLSCAASGSTFTWYAMGWYRQAPGKERELVADISYGGGSTYYADSVKGRFTISRDNAKNTVYLQMNSLKPEDTAVYYCAAESIPYYSYDYWGQGTQVTVSS	low polyreactivity

Sequence	polyreactivity (PSR sort gate)
QVQLVESGGGLVQAGGSLRLSCAASGFIFYAYAMGWYRQAPGKERELVAAISYSGGSTYYADSVKGRFTISRDNAKNTVYLQMNSLKPEDTAVYYCNTVSYGYSSKLYDYWGQGTLVTVSS	high polyreactivity
QVQLVDSGGGLVQAGGSLRLSCAASGITFWSYAMGWYRPAPGKERELVAGISRRGGSTYYADSVKGRFTISRDNAKNTVYLQMNSLKPEDTAVYYCAARAYPTPVRSFLYTDIVYYWGQGTQVTVSS	high polyreactivity
QVQLVESGGGLVQAGGSLRLSCAASGSIFVGYAMGWYRQAPGKERELVAAISSNGGSTYYADSVKGRFTISRDNAKNTVYLQMNSLKPEDTAVYYCAKDYTYSFGRSLDYWGQGTQVTVSS	low polyreactivity
QVQLVESGGGLVQAGGSLRLSCAASGFIFYYYAMGWYRQAPGKERELVAAITSSGGSTYYADSVKGRFTISRDNAKNTVYLQMISLKPEDTAVYYCNALQYSRMDYWGQATQVTVSS	high polyreactivity
QVQLVESGGGLVQAGGSLRLSCAASGSIFHRYAMGWYTQAPGKERELVAAISWSGGSTYYADSVKGRFTISRDNAKNTVYLQMNSLKPEDTAVYYCNRVAWNYGFGSSAYGYWGQGTQVTVSS	high polyreactivity
QVQLVESGGGLVQAGGSLRLSCAASGFIFWRYTMGWYRQAPGKERELVAVISWRGDNTYADSVEGRFTISRDNAKNTVYLQMNSLKPEDTAVYYCGVYRYDYWGQGTQVTVSS	low polyreactivity
QVQLVESGGGLVQAGGSLRLSCAASGGTFTFYAMGWYRQATGKERELVATINWSGGSTYYADSVKGRFTISRDNAKNTVYLQMNSLKPEDTAVYYCNAAWPYKSVEYWGQGTQVTVSS	low polyreactivity
QVQLVESGGGLVQAGGSLRLSCAASGSTFYANAMGWYRQAPGKEREFVADITISGGRTYYADSVKGRFTISRDNAKNTVYLQMNSLKPEDTAVYYWNTRGIFFQSQTHDYWGQGTQVTVSS	low polyreactivity
QVQLVESGGGLVQAGGSLRLSCAASGFIFFRYDMGWYRQAPGKERELVAVITSSGSTNYADSVKGRFTISRDNAKNTVYLQMNSLKPEDTAVYYCNARVSGVYRRRVNYWGEGTQVTVSS	high polyreactivity
QVQLVESGGGLVQAGGSLRLSCAASGRTFKYYAMGWYRQAPGKERELVAAISRGGSTNYADSVKGRFTISRDNAKNTVYLQVNSLKPEDTPVYYCAKDYVWYDEYDYWGQGTQVTVSS	low polyreactivity
QVQLVESGGGLVQAGGSLRLSCAASGLTFIYYAMGWYRQAPGKEWELVAAISVSGGSTYYADSVKGRFTISRDNAKNTVYLQMNSLKPEDTAVYYCAADWFVHKPRYHSTFDFWGQGTQVTVSS	low polyreactivity
QVKLVESGGGLVQAGGSLRLSCAASGITFVSYAMGWYTQAPGKEREFVAAINRSGGSTYYADSVKGRFTISRDNAKNTVYLQMNSLKPEDTAVYYCAARRNLAYYHSGYWGQGTQVTVSS	high polyreactivity
QVQLVESGGGLVQAGGSLRLSCAASGSIFWYYAMGWYRQAPGKERELVASISSSGGSTYYADSVKGRFTISRDNAKNTVYLQMNSLKPEDTAVYYCAVRSPYRLSRWRVGYWGQGTQVTVSS	high polyreactivity
QVQLVESGGGLVQAGGSLRLRCAASGSTFYRYALGWYRQAPGKERELVAVITSGGGTYSADSVKGRFSISRDNAKNTVYLQLNSRKPEDTAVYDCAARYLRTRNYQYDYWGQGTQVTVSS	high polyreactivity
QGQLVESGGCLVQAGGSRRLSCAASGRTFRGNAMGWYRQAPGKERELVPAISRRGGSTYYSDSVKGRFTISRDNAKITVYLQMNSLEPEDTADYYCARDDVDDNSYGNENGTYGYWGQGTQVTVSS	high polyreactivity
QVQLVESGGGLVQAGGSLRLSCAASGFIFDGNAMGWYRQAPGKERELLAAISWDGGTYYADSVKGRFTISRDNAKNTVYLQMNSLKPEDTAVYYCNKPYGAETAHREFDYWGQGTQVTVSS	low polyreactivity
QVQLVESGGGLVQAGGSLRLSCAASGRTFFPNAMGWYRQAPGKERELVAAISSGGGGTYYADSVKGRFTISRDNAKNTVYLQMISLKPEDTAVYYCAARNSKVEEEGNYWGQGTQVTVSS	low polyreactivity
QVQLVETGGGLVQAGGSLRLSCAASGSIFTYYAMGWSRQAPGKERELVAAITSGGSTYYADSVKGRFTISRDNAKNTVYLQMNSLKPEDTAVYYCNAVTFYRYYTGKYDYWGQGTQVTVSS	high polyreactivity
QVQLVESGGGLVQAGGSLRLSCAASGRIFYSYAMGWYRQAPGKESELVAAIRSTGSTNYADSVKGRFTISRDNAKNTVYLQMNSLKPEDTAVYYCAARTSYRSSLFGYWGQGTQVTVSS	high polyreactivity
QVQLVESGGGLVQAGGSLRLSCAASGFTFDDYTMGWYRPAPGKEREFVAAISSSGGSTYYADSVKGRFTISRDNAKNTVYLQMNSLKPVDTAVYYCAADARYYDYYEYDYWGQGTQVTVSS	high polyreactivity
QVQLVESGGGLVQAGGSLRLSCAASGLIFYWYTMGWYRQAPGKEREFVAAITWGGGGTYYADSVKGRFTISRDKAKNTVYLQMNSLKPEDTAVYYCAAEEQVVKAHGDYWGQGTQVTVSS	low polyreactivity
